US20190010233A1 (JIANGSU HYAMAB PHARMACEUTICAL, published 2019)
Where two headings read alike, the source gives them in different places.

How the values were obtained:
[1] = biological target: T1, human PD-L1^ECD-hFc protein (human, UniProt Q9NZQ7 19-239, biotinylated in the PD-1 binding ELISA (Table 3) and in the Octet assay (Table 12)); assay: ELISA, 0.001 nM mAb
T1 construct: The plain and the biotinylated protein are kept as one molecule; also called PD-L1-hFc; Immunogen A; not shown: human IgG Fc fragment (hFc)
Protocol: (§1) 100 μL of the diluted recombinant proteins were added to each well of 96-well plate. The plates were sealed with plastic film and incubated at 4° C. overnight. The plates were washed twice with wash buffer (PBS+0.01% (v/v) Tween20), and incubated with blocking buffer (PBS+0.01% (v/v) Tween20+1% (w/w) BSA) at room temperature for 2 hours. The blocking buffer was aspirated away, and 100 μL of purified anti-PD-L1 antibodies were added to each well and incubated for 2 hours at 37° C. The plates were washed three times with wash buffer (PBS+0.01% (v/v) Tween20). HRP-conjugated secondary antibody (Sigma) was added to each well and incubated for 2 hours at 37° C. After the plates were washed three times with wash buffer, 100 μL TMB substrate were added to each well, and the plates were incubated for 30 minutes at room temperature. 100 μL stop solution (0.1N HCl) was added to each well to stop the reaction.

[2] = biological target: T1, human PD-L1^ECD-hFc protein; assay: ELISA, 0.0001 nM mAb
Protocol: as §1

[3] = biological target: T2, full length human PD-L1 on cells (human, UniProt Q9NZQ7 19-290); assay: FACS CHO-K1-hPD-L1, 10 nM mAb
T2 construct: Also used as the target of the cell-based functional assays (transfected stimulator cells; PD-L1 of the cells in the mixed lymphocyte reaction); also called CHO-K1-hPD-L1; CHOK1-hPD-L1
Protocol: (§2) Other CHO-K1 were stably transfected with a pIRES plasmid containing the nucleic acid sequence encoding full length cyno PD-L1 to generate CHO-K1 cells stably expressing cyno PD-L1 (herein referred to as CHO-K1-cPD-L1 cells). […] The culture media was aspirated, and the cells were washed twice with HBSS (Hanks Balanced Salt Solution, Invitrogen). The cells were treated with enzyme-free cell dissociation solution (Versene solution, Invitrogen) and collected. The cells were then washed twice with HBSS, cell counts were determined, and cells were resuspended with HBSS at 2×10⁶ cells/mL. Goat serum was added to the cell suspension to a final concentration of 1%, and the cells were blocked for 30 minutes on ice and then washed twice with HBSS. The cells were collected after centrifugation and resuspended in FACS buffer (HBSS+1% BSA, v/v) at 2×10⁶ cells/mL. 100 μL of the cell suspension were then added to each well of 96-well plate. 100 μL of purified anti-PD-L1 antibodies from Example 2 were added to each well of the 96-well plate and incubated for 2 hours on ice. […] The samples were washed three times with FACS buffer, and 100 μL fixation buffer (4% paraformaldehyde v/v) were added to each well and incubated for 10 minutes. The cells were then washed twice with FACS buffer and resuspended in 100 μL FACS buffer. The mean fluorescence intensity (MFI) was determined using FACS Calibur (BD), and the results are shown in FIGS. 7-8 and in Tables 10-11.

[4] = biological target: T2, full length human PD-L1 on cells; assay: FACS CHO-K1-hPD-L1, 0.0001 nM mAb
Protocol: as §2

[5] = biological target: T2, full length human PD-L1 on cells; assay: cell-based or functional assay
[6] = biological target: T2, full length human PD-L1 on cells; assay: FACS CHO-K1-hPD-L1, 0.001 nM mAb
Protocol: as §2

[7] = biological target: T2, full length human PD-L1 on cells; assay: cell-based or functional assay; remark: listed apart in the source
[8] = biological target: T2, full length human PD-L1 on cells; assay: FACS CHO-K1-hPD-L1, 0.01 nM mAb
[9] = biological target: T2, full length human PD-L1 on cells; assay: cell-based or functional assay; remark: listed apart in the source
[10] = biological target: T3, full length cyno PD-L1 on cells (cyno, UniProt G7PSE7 19-290); assay: FACS CHO-K1-cPD-L1, 0.1 nM mAb
T3 construct: also called CHO-K1-cPD-L1
Protocol: as §2

[11] = biological target: T1, human PD-L1^ECD-hFc protein; assay: ELISA, 0.1 nM mAb
Protocol: as §1

[12] = biological target: T2, full length human PD-L1 on cells; assay: FACS CHO-K1-hPD-L1, 1 nM mAb

T2 sequence (Q9NZQ7 19-290 limits assumed): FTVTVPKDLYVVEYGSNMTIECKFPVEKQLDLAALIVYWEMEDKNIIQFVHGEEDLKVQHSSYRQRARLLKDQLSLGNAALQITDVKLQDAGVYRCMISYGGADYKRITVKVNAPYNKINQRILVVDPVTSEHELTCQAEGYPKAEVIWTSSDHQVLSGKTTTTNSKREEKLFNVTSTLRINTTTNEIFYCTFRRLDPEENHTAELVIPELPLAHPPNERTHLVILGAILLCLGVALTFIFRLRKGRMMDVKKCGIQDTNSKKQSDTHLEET
T1 sequence (Q9NZQ7 19-239): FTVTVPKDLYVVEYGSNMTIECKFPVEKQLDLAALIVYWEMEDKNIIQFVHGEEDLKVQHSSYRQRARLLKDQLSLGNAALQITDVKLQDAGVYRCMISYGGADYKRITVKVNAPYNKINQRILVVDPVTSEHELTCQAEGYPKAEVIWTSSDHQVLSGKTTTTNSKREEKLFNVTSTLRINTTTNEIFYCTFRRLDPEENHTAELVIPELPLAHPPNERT
T3 sequence (G7PSE7 entry or part of it limits assumed): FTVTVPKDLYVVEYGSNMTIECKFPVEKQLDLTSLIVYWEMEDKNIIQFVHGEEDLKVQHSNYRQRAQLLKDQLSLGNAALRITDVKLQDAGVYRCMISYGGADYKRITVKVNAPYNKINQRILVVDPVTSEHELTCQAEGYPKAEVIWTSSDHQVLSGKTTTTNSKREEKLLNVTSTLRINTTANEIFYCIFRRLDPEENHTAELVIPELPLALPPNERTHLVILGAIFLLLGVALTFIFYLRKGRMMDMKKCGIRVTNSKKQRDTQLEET

B1: chimeric anti-PD-L1 antibody 192D9E7 (antibody, V domains shown)
VH: EVQLVESGGGLVQPGGSLRLSCAASGFTFSSYWMSWVRQAPGKGLEWVADIKQDGSEKYYVDSVKGRFTISRDNAKNSLYLQMNSLRAEDTAVYYCTRDKPHWGGVMDAWGQGTSVTVSS
VL: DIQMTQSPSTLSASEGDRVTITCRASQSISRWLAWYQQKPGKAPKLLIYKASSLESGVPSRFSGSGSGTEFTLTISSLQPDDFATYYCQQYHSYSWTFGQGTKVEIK
notes: Purified from hybridoma of Harbour H2L2 mice: human variable regions, rat constant regions
- OD450 nm [1]: 0.25
- OD450 nm [2]: 0.21
- Mean fluorescence intensity [3]: 134
- Mean fluorescence intensity [4]: 3.58
- IFN-γ (pg/mL), MLR, 0.001 µg/mL mAb [5]: 4730 pg/mL
- IFN-γ (pg/mL), MLR, 0.01 µg/mL mAb [5]: 8100 pg/mL
- IFN-γ (pg/mL), MLR, 0.1 µg/mL mAb [5]: 9060 pg/mL
- IFN-γ (pg/mL), MLR, 1 µg/mL mAb [5]: 12400 pg/mL
- Mean fluorescence intensity [6]: 2.66
- IFN-γ (pg/mL), MLR, 0.001 µg/mL mAb [7]: 221 pg/mL
- IFN-γ (pg/mL), MLR, 0.01 µg/mL mAb [7]: 2000 pg/mL
- IFN-γ (pg/mL), MLR, 0.1 µg/mL mAb [7]: 3120 pg/mL
- IFN-γ (pg/mL), MLR, 1 µg/mL mAb [7]: 3300 pg/mL
- IFN-γ (pg/mL), MLR, 10 µg/mL mAb [7]: 4080 pg/mL
- Mean fluorescence intensity [8]: 7.85
- IL-2 (pg/mL), MLR donor 2, 0.001 µg/mL mAb [9]: 73.4 pg/mL
- IL-2 (pg/mL), MLR donor 2, 0.01 µg/mL mAb [9]: 130 pg/mL
- IL-2 (pg/mL), MLR donor 2, 0.1 µg/mL mAb [9]: 120 pg/mL
- IL-2 (pg/mL), MLR donor 2, 1 µg/mL mAb [9]: 94.4 pg/mL
- Mean fluorescence intensity [10]: 17
- OD450 nm [11]: 1.55
- Mean fluorescence intensity [12]: 97.6
